This is an account of results in patent US20100254975A1 (Amgen, published 2010).

The target of assay [1] is T1, human alpha4beta7 (human, UniProt P13612 34-1032; P26010 20-798). Nature of the assay: cell-based or functional assay.
For the next assay, the target named is a4(Q878R)b7 (human) (UniProt P13612). Kind of assay: FACS on transfected 293 cells, 1 microG/ml, PE anti-human IgG.
The next assay addresses a4(V824A)b7 (human) (UniProt P13612). The description is as above.
In the next assay the target is a4b7(E97V) (human) (UniProt P13612). Described as above.
Chain of a4b7(E97V) (human) (P13612 34-1032, chain 1 of 2): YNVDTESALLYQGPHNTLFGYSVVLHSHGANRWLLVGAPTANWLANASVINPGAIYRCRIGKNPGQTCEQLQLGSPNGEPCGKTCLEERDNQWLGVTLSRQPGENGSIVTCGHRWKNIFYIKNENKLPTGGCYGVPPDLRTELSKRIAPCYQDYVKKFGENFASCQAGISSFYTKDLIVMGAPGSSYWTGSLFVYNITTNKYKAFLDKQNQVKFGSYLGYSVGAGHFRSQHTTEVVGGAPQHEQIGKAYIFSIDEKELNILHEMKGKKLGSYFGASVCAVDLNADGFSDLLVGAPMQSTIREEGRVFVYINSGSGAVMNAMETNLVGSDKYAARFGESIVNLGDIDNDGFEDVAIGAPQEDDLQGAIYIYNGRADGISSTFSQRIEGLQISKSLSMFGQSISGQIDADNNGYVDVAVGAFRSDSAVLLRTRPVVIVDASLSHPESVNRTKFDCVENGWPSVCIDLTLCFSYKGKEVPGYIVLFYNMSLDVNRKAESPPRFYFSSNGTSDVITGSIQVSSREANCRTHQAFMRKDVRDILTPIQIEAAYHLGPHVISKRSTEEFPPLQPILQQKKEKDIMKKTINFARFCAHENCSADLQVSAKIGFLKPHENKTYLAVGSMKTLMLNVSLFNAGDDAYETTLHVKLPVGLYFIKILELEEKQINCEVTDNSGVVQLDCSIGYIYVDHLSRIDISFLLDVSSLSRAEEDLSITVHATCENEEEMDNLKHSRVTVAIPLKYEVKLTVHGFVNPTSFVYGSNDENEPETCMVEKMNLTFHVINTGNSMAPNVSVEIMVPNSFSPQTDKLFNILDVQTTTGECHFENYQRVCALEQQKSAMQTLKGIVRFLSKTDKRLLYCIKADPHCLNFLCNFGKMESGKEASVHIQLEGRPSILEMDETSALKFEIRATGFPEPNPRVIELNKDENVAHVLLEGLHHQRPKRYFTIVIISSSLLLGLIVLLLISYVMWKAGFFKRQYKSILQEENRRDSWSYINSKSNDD
Chain of a4b7(E97V) (human) (P26010 20-798 E97V, chain 2 of 2, further chain): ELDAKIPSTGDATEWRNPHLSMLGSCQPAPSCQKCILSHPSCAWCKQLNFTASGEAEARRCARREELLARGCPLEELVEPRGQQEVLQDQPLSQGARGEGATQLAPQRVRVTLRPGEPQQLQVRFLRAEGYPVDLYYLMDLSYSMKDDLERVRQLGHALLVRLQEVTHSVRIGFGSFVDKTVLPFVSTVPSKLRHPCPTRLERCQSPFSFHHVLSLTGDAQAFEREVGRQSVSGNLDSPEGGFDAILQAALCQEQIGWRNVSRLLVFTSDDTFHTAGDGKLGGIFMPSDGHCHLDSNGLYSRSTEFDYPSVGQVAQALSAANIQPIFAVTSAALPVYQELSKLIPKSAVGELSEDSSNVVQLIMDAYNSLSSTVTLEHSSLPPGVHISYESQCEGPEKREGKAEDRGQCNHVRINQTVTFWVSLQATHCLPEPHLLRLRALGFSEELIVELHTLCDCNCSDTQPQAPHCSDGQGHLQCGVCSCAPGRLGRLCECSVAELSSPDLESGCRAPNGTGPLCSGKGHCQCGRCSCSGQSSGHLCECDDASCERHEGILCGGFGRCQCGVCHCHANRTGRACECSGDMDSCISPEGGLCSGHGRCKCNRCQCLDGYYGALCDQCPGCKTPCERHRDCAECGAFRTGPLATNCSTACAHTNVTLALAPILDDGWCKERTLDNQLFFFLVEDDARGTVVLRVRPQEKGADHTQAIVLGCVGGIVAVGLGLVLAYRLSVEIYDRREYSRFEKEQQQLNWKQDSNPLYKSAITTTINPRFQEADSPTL
Another assay addresses a4b7(G629S) (human) (UniProt P13612). Described as above.
The next assay concerns the target a4b7(R213S) (human) (UniProt P13612). The assay is described as above.
The target in assay [2] is T1, human alpha4beta7. The description is as above. From the text: Point mutant constructs representing amino acid altering SNPs (a4b7(E97V); a4b7(R213S); a4b7(G629S; a4(V824A)b7; a4(Q878R)b7) in the extracellular domains of both alpha4 and beta7 were generated. Each point mutant construct was transfected to 293 cells along with the wild-type partner expression construct. Transfected 293 cells were first stained with 1 microG/ml of human IgG or anti-alpha4beta7 antibody, washed with PBS, and the stained with phycoerytherin conjugated secondary antibody goat-anti human IgG. After washing with PBS, cells were analyzed by fluorescence activated cell sorting, for example, with a FACSCalibur™ (BD Biosciences, San Jose Calif.).

Assay [3] addresses T1, human alpha4beta7. Kind of assay: FACS, biotinylated antibody on human CD4+CD45RA- memory T cells. On the procedure:
Human peripheral blood mononuclear cells (PBMC; fresh or frozen and thawed, for example in phosphate buffered saline with 2% FBS) are washed and resuspended in HEPES buffer (30 mM HEPES+[…]) with 1% BSA, with or without 1 mM MnCl₂ (depending on the experiment; Mn²⁺ is necessary for MAdCAM-1 binding) and plated into 96 well plates (10⁶cells/well). Cells are incubated with 10 microG/ml human IgG for 30 minutes on ice to block nonspecific binding. Cells are then incubated with serial dilutions of biotinylated anti-alpha4beta7 antibodies in 96 well plates for one hour on ice, followed by addition of 1:100 dilution of streptavidin-phycoerythrin (PE; Jackson ImmunoResearch Laboratories Inc., West Grove, Pa.), 4 microL CD3-Pacific Blue, CD4-PerCP-Cy5.5 and CD45RA-fluorescein isothiocyanate (FITC) (BD Biosciences, San Jose Calif.) for a final volume of 100 microL, and incubated for another hour on ice. Cells were washed twice with HEPES buffer (with or without MnCl₂, correspondingly) and then fixed in 200 microL HEPES buffer plus 0.5% paraformaldehyde (again, with or without MnCl₂, correspondingly). The percentage of positive alpha4beta7 antibody binding CD4+CD45RA-memory T cells is determined using a fluorescence activated cell sorter (FACS), for example, a BD™ LSR II benchtop flow cytometer (BD Biosciences, San Jose Calif.).
For orientation: A flow cytometer gives signals particle by particle.

In assay [4] the target is T1, human alpha4beta7. Nature of the assay: FACS competition, blocks biotinylated MAdCAM-1-Fc binding to human CD4+CD45RA- memory T cells. On the procedure:
PBMC (fresh or frozen as described previously) are washed and resuspended in HEPES buffer (30 mM HEPES+[…]) with 1% BSA and 1 mM MnCl. to a final concentration of 10⁷cells/ml. Cells are blocked as described previously; after blocking, cells are incubated with a serial dilution of anti-alpha4beta7 antibody (or appropriate control) in 96 well plates for 30 minutes on ice, and then with 0.3 microG/ml biotinylated MAdCAM-1-Fc protein for another one hour.
After two washes in HEPES buffer with 1 mM MnCl, cells are treated with 1:100 dilution of streptavidin-PE, 4 microL CD3-Pacific Blue, CD4-PerCP-Cy5.5 and CD45RA-FITC as described previously, in a final volume of 100 microL. After one hour incubation on ice, cells are washed twice with HEPES buffer with 1 mM MnCl and then fixed in 200 microL buffer plus 0.5% paraformaldehyde. The percentage of positive MAdCAM-1-Fc binding CD4+CD45RA-memory T cells is determined by fluorescence activated cell sorter (FACS) analysis, as described previously.

Chain of a4(V824A)b7 (human) (P13612 34-1032 V824A, chain 1 of 2): as the sequence (P13612 34-1032, chain 1 of 2) above, with V791A counted along it
Chain of a4(V824A)b7 (human) (P26010 20-798, chain 2 of 2, further chain): as the sequence (P26010 20-798 E97V, chain 2 of 2, further chain) above, with V78E counted along it
Chain of a4b7(R213S) (human) (P13612 34-1032, chain 1 of 2): as the sequence (P13612 34-1032, chain 1 of 2) above
Chain of a4b7(R213S) (human) (P26010 20-798 R213S, chain 2 of 2, further chain): as the sequence (P26010 20-798 E97V, chain 2 of 2, further chain) above, with V78E, R194S counted along it
Chain of a4(Q878R)b7 (human) (P13612 34-1032, chain 1 of 2): as the sequence (P13612 34-1032, chain 1 of 2) above
Chain of a4(Q878R)b7 (human) (P26010 20-798, chain 2 of 2, further chain): as the sequence (P26010 20-798 E97V, chain 2 of 2, further chain) above, with V78E counted along it
Chain of a4b7(G629S) (human) (P13612 34-1032, chain 1 of 2): as the sequence (P13612 34-1032, chain 1 of 2) above
Chain of a4b7(G629S) (human) (P26010 20-798 G629S, chain 2 of 2, further chain): as the sequence (P26010 20-798 E97V, chain 2 of 2, further chain) above, with V78E, G610S counted along it
T1 sequence (P13612 34-1032, chain 1 of 2): as the sequence (P13612 34-1032, chain 1 of 2) above
T1 sequence (P26010 20-798, chain 2 of 2): as the sequence (P26010 20-798 E97V, chain 2 of 2, further chain) above, with V78E counted along it

B1: 26G2 (antibody, V domains shown)
VH: QVQLVESGGGLVKPGGSLRLSCAASGFTFSDYYMSWIRQAPGKGLEWVSYISSIGSAIHYADSVKGRFTISRDNAKNSLYLQMNSLRAEDTAVYYCAREYSSGWAYFDYWGQGTLVTVSS
VL: DIQMTQSPSSVSASVGDRVTITCRASQDISSWLAWYQQKPGTAPKVLIYSASSLQNGVPSRFSGRGSGTDFALTISSLQPEDFATYYCQQADSFPWTFGRGTKVEIK
notes: Fully human monoclonal from XenoMouse (human IgG2 or IgG4); kappa light chain; also called 26G2k; 26G2K
As for B1, the “HUT78 Adhesion IC50” value with human alpha4beta7 [1] amounted to 6.9 ng/mL. The fluorescence staining intensity (geometric mean) worked out at 58 with a4(Q878R)b7 (human); 86 with a4(V824A)b7 (human); 113 in the assay with a4b7(E97V) (human); 64 with a4b7(G629S) (human); 38 in the assay with a4b7(R213S) (human); 99 in the assay with human alpha4beta7 [2]. In the assay with human alpha4beta7 [3], the EC50 was 32.6 ng/mL. The same molecule registered an IC50 with human alpha4beta7 [4] of 99.6 ng/mL.

B2: 25C9 (antibody, V domains shown)
VH: QVQLVESGGGLVKPGGSLRLSCAASGFTFNDYYMSWIRQAPGKGLEWVSYISSSGSAIHYADSVKGRFTISRDNAKNSLYLQMNSLRAEDTAVYYCAREYSSGWAYFDYWGQGTLVTVSS
VL: DIQMTQSPSSVSASVGDRVTITCRASQDISSWLAWYQRKPGKAPKVLIYSASSLQSGVPSRFSGSGSGTDFTLTISSLQPEDFATYYCQQADSFPWTFGQGTKVEIK
notes: Fully human monoclonal from XenoMouse (human IgG2 or IgG4); kappa light chain; also called 25C9k; 25C9K
For the molecule B2, the “HUT78 Adhesion IC50” value in the assay with human alpha4beta7 [1] is 13.7 ng/mL. Besides, the fluorescence staining intensity (geometric mean) in the assay with a4(Q878R)b7 (human) stood at 51; with a4(V824A)b7 (human), 77; in the assay with a4b7(E97V) (human) it was 106; with a4b7(G629S) (human), 59; in the assay with a4b7(R213S) (human), 33; in the assay with human alpha4beta7 [2], 96. In the assay with human alpha4beta7 [4], this molecule showed an IC50 of 77.6 ng/mL.

B3: 27G8 (antibody, V domains shown)
VH: EVQLVESGGGLVQPGGSLRLSCAASGFTFSSYWMSWVRQASGKGLEWVANIKQDGSEKYYVDSVKGRFTISRDNAKNSLYLQMNSLRAEDTAVYYCAREGGYDWNYADYYGMDVWGQGTTVTVSS
VL: QSVLTQPPSVSEAPRQRVTISCSGSNSNIGNNPVNWYQLFPGRAPKLLIYHDDLLPSGVSDRFSGSRSGTSASLAISGLQSEDETDYYCTAWDDSLNGWVFGGGTKLTVL
notes: Fully human monoclonal from XenoMouse (human IgG2 or IgG4); lambda light chain; PE-conjugated in the cynomolgus study; also called 27G8L; 27G8H
Turning to B3, in the assay with human alpha4beta7 [1], the “HUT78 Adhesion IC50” value turned out to be 14.9 ng/mL. Moreover, the fluorescence staining intensity (geometric mean) in the assay with a4(Q878R)b7 (human) was found to be 58; with a4(V824A)b7 (human), 88; with a4b7(E97V) (human) it was 116; in the assay with a4b7(G629S) (human), 68; in the assay with a4b7(R213S) (human), 59; with human alpha4beta7 [2], 102. This molecule registered a half-maximal effective concentration (EC50) with human alpha4beta7 [3] of 6.3 ng/mL. The molecule further returned an IC50 with human alpha4beta7 [4] of 8.7 ng/mL.

B4: 19G6 (antibody, V domains shown)
VH: QVQLVESGGDLVKPGGSLRLSCAASGFTFSDYYMSWIRQAPGKGLEWISYISSSGSTMYYADSVKGRFTISRVNAKNSLYLQMNSLRAEDTAVYYCARDRSSGLVSFDYWGQGTLVTVSS
VL: DIQMTQSPSSLSASVGDRVTISCQASQDINTYLNWYQQKPGKVPKLLIYDASNLETGVPSRFSGSGSGTDFTFTISGLQPEDIATYYCQQFDNLPITFGQGTRLEIK
notes: Fully human monoclonal from XenoMouse (human IgG2 or IgG4); kappa light chain; also called 19G6K; 19G6H
As for B4, the “HUT78 Adhesion IC50” value with human alpha4beta7 [1] turned out to be 12.2 ng/mL. The fluorescence staining intensity (geometric mean) is 46 in the assay with a4(Q878R)b7 (human); 67 with a4(V824A)b7 (human); 108 with a4b7(E97V) (human); 59 with a4b7(G629S) (human); 46 in the assay with a4b7(R213S) (human); 94 in the assay with human alpha4beta7 [2]. Besides, in the assay with human alpha4beta7 [3], the EC50 came to 32.9 ng/mL. This molecule displayed a 50% inhibitory concentration (IC50) in the assay with human alpha4beta7 [4] of 103 ng/mL.

B5: 22B2 (antibody, V domains shown)
VH: EVQLVQSGAEVKEPGESLKISCKGSGYIFTSYWIAWVRQLPGKGLEWMGIIDPNDSDTRYSPSFQGQVTISADKSIHTAYLQWSSLKASDTAMYYCATHRLWLGTLPGGFYIWGQGTMVTVSS
VL: DVQMTQSPSSLSASVGDRVTITCQASQDITDYLNWYQQKPGKAPKLLIYDTSNLEAGVPSRFSGSGSGTDFTFTISSLQPEDIATYYCQQYDILPYSFGQGTDLEIK
notes: Fully human monoclonal from XenoMouse (human IgG2 or IgG4); kappa light chain; also called 22B2K; 22B2H
B5: the “HUT78 Adhesion IC50” value in the assay with human alpha4beta7 [1] was 3.7 ng/mL. Moreover, the fluorescence staining intensity (geometric mean) with a4(Q878R)b7 (human) was determined as 58; with a4(V824A)b7 (human), 85; with a4b7(E97V) (human), 108; in the assay with a4b7(G629S) (human), 65; in the assay with a4b7(R213S) (human), 58; with human alpha4beta7 [2] it was 97. This molecule yielded a half-maximal effective concentration (EC50) in the assay with human alpha4beta7 [3] of 5.1 ng/mL. The molecule further gave an IC50 with human alpha4beta7 [4] of 23.2 ng/mL.

B6: 26H3 (antibody, V domains shown)
VH: EVQLVQSGAEVKKPGESLKISCKGSGYSFTGYWIGWVRQMPGKGLEWMGIIYPYDSDTRYSPSFQGQVTISADKSINTAYLQWSSLKASDTAMFYCASHRLWLGEFPGPLNIWGQGTMVTVSS
VL: DIQMTQSPSSLSASVGDRVTITCQASQDISNYLNWYQQKPGKAPKLLIYDASNLETGVPSRFSGSGSGTDFTFTINSLQPEDIATYFCQQYDNLPCSFGQGTKLEIK
notes: Fully human monoclonal from XenoMouse (human IgG2 or IgG4); kappa light chain; also called 26H3K; 26H3H
Take B6: in the assay with human alpha4beta7 [1], the “HUT78 Adhesion IC50” value came out at 8.9 ng/mL. In the assay with human alpha4beta7 [2], the “fluorescence staining intensity (geometric mean)” value stood at 93. In addition, the concentration giving a half-maximal response (EC50) with human alpha4beta7 [3] was 9.3 ng/mL. For the same molecule, the IC50 in the assay with human alpha4beta7 [4] turned out to be 14.1 ng/mL.

B7: 1A10 (antibody, V domains shown)
VH: QVQLVQSGAEVKKPGASVKVSCKVSGYTLNDLSMHWVRQAPGKGLEWMGGFDPAEGKIISAQKFQDRVTMTDDTSTDTAYMELSSLRSEDSAVYYCATLDFSSWFDPWGQGTLVTVSS
VL: DIQMTQSPSSVSASVGDRVTITCRASQGVSSWLAWYQQKPGMAPKLLIYAASILQSGVPSRFSGSGSGTDFTLTISSLQPEDFATYYCQQANSFPWTFGQGTKVEIK
notes: Fully human monoclonal from XenoMouse XG2kl or XG4kl mice (human IgG2 or IgG4); kappa light chain; also called 1A10K; 1A10H
On to B7, for which the “HUT78 Adhesion IC50” value in the assay with human alpha4beta7 [1] was 6.1 ng/mL. For the same molecule, the fluorescence staining intensity (geometric mean) worked out at 70 with a4(Q878R)b7 (human); 102 with a4(V824A)b7 (human); 135 with a4b7(E97V) (human); 80 with a4b7(G629S) (human); 31 with a4b7(R213S) (human); 122 with human alpha4beta7 [2]. In the assay with human alpha4beta7 [3], this molecule registered an EC50 of 4.9 ng/mL. The IC50 with human alpha4beta7 [4] amounted to 6.2 ng/mL.

B8: 3A5 (antibody, V domains shown)
VH: QVQLVQSGAEVKKPGASVKVSCKVSGYTLNDLSMHWVRQAPGKGLEWMGGFDPAEGKIISAQKFQDRVTMTDDTSTDTAYMELSSLRSEDSAVYYCATLDFSSWFDPWGQGTLVTVSS
VL: DIQMTQSPSSVSASVGDRVTITCRASQGVISWLAWYQQKPGMAPKLLIYAASILQSGVPSRFSGSGSGTDFTLTISSLQPEDFATYYCQQANSFPWTFGQGTNVEIK
notes: Fully human monoclonal from XenoMouse (human IgG2 or IgG4); kappa light chain; also called 3A5K; 3A5H
For B8, in the assay with human alpha4beta7 [1], the “HUT78 Adhesion IC50” value is 7.5 ng/mL. Also, the fluorescence staining intensity (geometric mean) with a4(Q878R)b7 (human) was determined as 71; in the assay with a4(V824A)b7 (human), 110; with a4b7(E97V) (human), 135; with a4b7(G629S) (human), 80; with a4b7(R213S) (human), 31; with human alpha4beta7 [2], 124. Besides, the midpoint of the response with human alpha4beta7 [3], the EC50, lay at 5.6 ng/mL. This molecule returned an IC50 with human alpha4beta7 [4] of 6.2 ng/mL.

As usually defined, the EC50 is the concentration giving half of the maximal effect. For orientation: IC50 means the concentration needed to halve the response being measured. Low values mean greater potency in that assay, high ones weaker potency in that assay.
